Patent CN113754772A (SUNSHINE GUOJIAN PHARMACEUTICAL SHANGHAI CO LTD, dated 2021)

B1: anti-PDL1×KDR BsAb3 (bispecific antibody, human IgG1, lambda)
heavy: not shown
light: VLTQPPSVSGAPGQRVTISCTGSHSNFGAGTDVHWYQHLPGTAPKLLIHGDSNRPSGVPDRFSGSKSGTSASLAITGLQAEDEADYYCQSYDYGLRGWVFGGGTKLTVLGQPKAAPSVTLFPPSSEELQANKATLVCLISDFYPGAVTVAWKADSSPVKAGVETTTPSKQSNNKYAASSYLSLTPEQWKSHRSYSCQVTHEGSTVEKTVAPTECS
notes: also called 抗PDL1×KDR双抗
B2: 抗PD-L1单抗 (anti-human PD-L1 monoclonal antibody M8) (antibody, V domains shown)
VH: QVQLQQSGGGLVKPSQSLSLTCTVSGFSLTSYGVHWVRQPPGKGLEWIGLIWSGGGTDYNPSLKSRLTISRDTSKNQVSFKISSLTAADTAVYYCARQLGLRAMDYWGQGTSVTVSS
VL: EIVLTQSPDFLSVTPKEKVTITCRASQSIGTTIHWYQQKPDQSPKLLIKYASQSFSGVPSRFSGSGSGTDFTLTINSVEAEDAATYYCQQSNSWPLTFGAGTKLEIK
notes: also called 抗人PD-L1单抗M8; anti-PDL1 mAb
B3: anti-PDL1×KDR BsAb1 (bispecific antibody)
heavy (part 1 of 2): B2 VH
heavy (part 2 of 2): GGGGSGGGGSGGGGSVLTQPPSVSGAPGQRVTISCTGSHSNFGAGTDVHWYQHLPGTAPKLLIHGDSNRPSGVPDRFSGSKSGTSASLAITGLQAEDEADYYCQSYDYGLRGWVFGGGTKLTVLGGGGSGGGGSGGGGSGGGGSEVQLVESGGGLVKPGGSLRLSCAASGFTFSSYSMNWVRQAPGKGLEWVSSISSSSSYIYYADSVKGRFTISRDNAKNSLYLQMNSLRAEDTAVYYCARVTDAFDIWGQGTLVTVSS
light: EIVLTQSPDFLSVTPKEKVTITCRASQSIGTTIHWYQQKPDQSPKLLIKYASQSFSGVPSRFSGSGSGTDFTLTINSVEAEDAATYYCQQSNSWPLTFGAGTKLEIKRTVAAPSVFIFPPSDEQLKSGTASVVCLLNNFYPREAKVQWKVDNALQSGNSQESVTEQDSKDSTYSLSSTLTLSKADYEKHKVYACEVTHQGLSSPVTKSFNRGEC
notes: also called 抗PDL1×KDR双抗; not shown: CH1-CH2-CH3 heavy chain constant region
B4: anti-PDL1×KDR BsAb2 (bispecific antibody)
heavy (part 1 of 2): B2 VH
heavy (part 2 of 2): GGGGSGGGGSGGGGSEVQLVESGGGLVKPGGSLRLSCAASGFTFSSYSMNWVRQAPGKGLEWVSSISSSSSYIYYADSVKGRFTISRDNAKNSLYLQMNSLRAEDTAVYYCARVTDAFDIWGQGTLVTVSSGGGGSGGGGSGGGGSGGGGSVLTQPPSVSGAPGQRVTISCTGSHSNFGAGTDVHWYQHLPGTAPKLLIHGDSNRPSGVPDRFSGSKSGTSASLAITGLQAEDEADYYCQSYDYGLRGWVFGGGTKLTVL
light: B3 light
notes: as for B3
B5: 抗KDR单抗 (anti-human KDR monoclonal antibody) (antibody, V domains shown)
VH: EVQLVESGGGLVKPGGSLRLSCAASGFTFSSYSMNWVRQAPGKGLEWVSSISSSSSYIYYADSVKGRFTISRDNAKNSLYLQMNSLRAEDTAVYYCARVTDAFDIWGQGTLVTVSS
VL: VLTQPPSVSGAPGQRVTISCTGSHSNFGAGTDVHWYQHLPGTAPKLLIHGDSNRPSGVPDRFSGSKSGTSASLAITGLQAEDEADYYCQSYDYGLRGWVFGGGTKLTVL
notes: Whole monoclonal antibody; CDRs from clone 3A10 of Dan Lu et al. 2003, frameworks mutated in house; also called 抗人KDR单抗; anti-KDR mAb

These binders were tested against T1, PD-L1 on N87-PDL1 cells (UniProt Q9NZQ7 19-290, limits assumed) (assay: flow cytometry on N87-PDL1 cells, FITC goat anti-human Fc).
T1 construct: whole, on cells; also called N87-PDL1细胞
T1 sequence (Q9NZQ7 19-290 limits assumed): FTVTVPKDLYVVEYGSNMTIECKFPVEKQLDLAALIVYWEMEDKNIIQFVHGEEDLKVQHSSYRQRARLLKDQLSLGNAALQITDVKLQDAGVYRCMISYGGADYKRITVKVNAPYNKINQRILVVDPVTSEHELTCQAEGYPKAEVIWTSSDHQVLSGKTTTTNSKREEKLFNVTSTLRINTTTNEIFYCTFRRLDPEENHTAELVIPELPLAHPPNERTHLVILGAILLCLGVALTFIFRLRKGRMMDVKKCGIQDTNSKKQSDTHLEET

EC50	Binder
210 pM	B1
130 pM	B2
150 pM	B3
150 pM	B4

What follows are binders tested against T2, PDL1-ECD-His蛋白 (human, UniProt Q9NZQ7 19-238) (assay: ELISA, PDL1-ECD-His coated, HRP goat anti-human Fc).
T2 construct: extracellular domain; Made in HEK-293E cells with an added N-terminal signal peptide (not part of the mature protein); also called PD-L1抗原
T2 sequence (Q9NZQ7 other isoform, or with tags, fused parts or gaps): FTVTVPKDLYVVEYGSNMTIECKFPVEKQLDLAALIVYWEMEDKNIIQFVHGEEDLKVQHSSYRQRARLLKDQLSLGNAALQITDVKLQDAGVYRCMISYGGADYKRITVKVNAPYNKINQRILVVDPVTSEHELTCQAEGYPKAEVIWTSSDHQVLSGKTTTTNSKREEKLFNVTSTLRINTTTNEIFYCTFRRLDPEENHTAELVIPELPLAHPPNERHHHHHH

EC50	Binder
150 pM	B1
130 pM	B2
130 pM	B3
140 pM	B4

These binders were tested against T3, KDR-ECD-His蛋白 (human, UniProt P35968 20-764) (assay: ELISA, KDR-ECD-His coated, HRP-anti-Fab).
T3 construct: extracellular domain; Made in HEK-293E cells with an added N-terminal signal peptide (not part of the mature protein); also called KDR抗原
T3 sequence (P35968 other isoform, or with tags, fused parts or gaps): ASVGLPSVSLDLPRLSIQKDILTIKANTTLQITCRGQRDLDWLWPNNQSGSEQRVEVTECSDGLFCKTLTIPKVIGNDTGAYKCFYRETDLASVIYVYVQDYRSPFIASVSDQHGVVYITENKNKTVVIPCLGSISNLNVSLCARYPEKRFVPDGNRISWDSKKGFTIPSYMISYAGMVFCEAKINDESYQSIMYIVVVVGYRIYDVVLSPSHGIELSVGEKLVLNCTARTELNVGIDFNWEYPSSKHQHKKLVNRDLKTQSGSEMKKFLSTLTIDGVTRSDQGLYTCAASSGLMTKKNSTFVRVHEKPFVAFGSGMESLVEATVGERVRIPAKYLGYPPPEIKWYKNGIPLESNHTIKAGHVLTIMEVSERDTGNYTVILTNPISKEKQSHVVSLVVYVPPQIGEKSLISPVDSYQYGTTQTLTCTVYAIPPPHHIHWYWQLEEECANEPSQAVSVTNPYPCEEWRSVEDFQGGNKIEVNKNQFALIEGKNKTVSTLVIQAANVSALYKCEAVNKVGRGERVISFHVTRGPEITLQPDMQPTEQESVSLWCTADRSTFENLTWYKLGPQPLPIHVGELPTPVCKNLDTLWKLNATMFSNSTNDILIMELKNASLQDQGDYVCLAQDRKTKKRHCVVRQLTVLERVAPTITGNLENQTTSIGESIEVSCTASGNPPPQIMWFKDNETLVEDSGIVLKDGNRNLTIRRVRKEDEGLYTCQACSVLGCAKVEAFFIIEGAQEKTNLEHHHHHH

EC50	Binder
410 pM	B1
230 pM	B3
230 pM	B4
260 pM	B5

The binders below were run against PD-L1 on PD-L1 aAPC/CHO-K1 cells (UniProt Q9NZQ7 19-290, limits assumed) (assay: cell-based or functional assay).
PD-L1 on PD-L1 aAPC/CHO-K1 cells, sequence (Q9NZQ7 19-290 limits assumed): as the sequence (Q9NZQ7 19-290 limits assumed) above

IC50 (luminescence, PD-1/PD-L1 Blockade Bioassay)	Binder
300 pM	B1
230 pM	B2
270 pM	B3
220 pM	B4

The binders below were run against KDR on KDR/NFAT-RE HEK293 cells (UniProt P35968 20-1356) (assay: cell-based or functional assay).
KDR on KDR/NFAT-RE HEK293 cells, sequence (P35968 20-1356): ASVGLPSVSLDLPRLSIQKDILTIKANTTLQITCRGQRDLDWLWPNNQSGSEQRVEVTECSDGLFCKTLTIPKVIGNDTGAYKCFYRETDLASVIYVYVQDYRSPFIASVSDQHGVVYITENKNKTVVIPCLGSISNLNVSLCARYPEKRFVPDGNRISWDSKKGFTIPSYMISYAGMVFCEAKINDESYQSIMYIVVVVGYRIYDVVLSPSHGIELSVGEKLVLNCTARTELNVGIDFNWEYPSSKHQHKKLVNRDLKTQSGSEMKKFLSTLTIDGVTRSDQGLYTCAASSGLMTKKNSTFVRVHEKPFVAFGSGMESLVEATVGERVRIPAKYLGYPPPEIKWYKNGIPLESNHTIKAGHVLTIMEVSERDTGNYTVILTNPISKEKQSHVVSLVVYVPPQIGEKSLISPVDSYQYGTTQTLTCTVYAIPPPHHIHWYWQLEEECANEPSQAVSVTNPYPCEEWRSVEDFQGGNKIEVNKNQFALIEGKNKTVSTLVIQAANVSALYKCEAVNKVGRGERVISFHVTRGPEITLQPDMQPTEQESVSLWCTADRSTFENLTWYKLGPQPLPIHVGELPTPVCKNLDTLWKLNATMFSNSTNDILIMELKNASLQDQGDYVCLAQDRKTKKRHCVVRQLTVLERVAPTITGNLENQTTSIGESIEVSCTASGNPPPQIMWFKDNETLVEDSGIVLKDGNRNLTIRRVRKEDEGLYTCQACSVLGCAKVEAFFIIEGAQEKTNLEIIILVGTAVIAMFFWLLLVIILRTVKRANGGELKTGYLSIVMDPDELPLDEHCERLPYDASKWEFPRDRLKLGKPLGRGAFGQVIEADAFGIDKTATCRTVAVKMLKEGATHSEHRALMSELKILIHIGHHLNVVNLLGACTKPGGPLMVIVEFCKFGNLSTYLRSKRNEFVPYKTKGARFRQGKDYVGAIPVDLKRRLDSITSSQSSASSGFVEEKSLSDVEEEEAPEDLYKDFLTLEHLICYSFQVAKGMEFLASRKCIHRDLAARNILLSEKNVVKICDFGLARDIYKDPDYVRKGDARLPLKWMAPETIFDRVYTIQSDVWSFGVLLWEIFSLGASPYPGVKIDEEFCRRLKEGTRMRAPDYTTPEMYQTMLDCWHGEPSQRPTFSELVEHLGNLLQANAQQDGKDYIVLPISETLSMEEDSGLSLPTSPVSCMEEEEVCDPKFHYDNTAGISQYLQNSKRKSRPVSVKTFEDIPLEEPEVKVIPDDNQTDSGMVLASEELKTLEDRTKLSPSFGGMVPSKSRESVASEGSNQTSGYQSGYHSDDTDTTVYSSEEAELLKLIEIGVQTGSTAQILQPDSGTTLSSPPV

IC50 (luminescence, VEGF Bioassay)	Binder
4350 pM	B1
13500 pM	B3
6090 pM	B4
3100 pM	B5

Each binder was assayed against T4, PDL1-ECD-hFc蛋白 (human, UniProt Q9NZQ7 19-238) (assay: bridging ELISA: PDL1-ECD-hFc coated, antibody, then KDR-ECD-His, detected with HRP-anti-His).
T4 construct: extracellular domain; PDL1-ECD-His with its C-terminal tag exchanged for hFc; not shown: hFc tag in place of the His tag
T4 sequence (Q9NZQ7 19-238): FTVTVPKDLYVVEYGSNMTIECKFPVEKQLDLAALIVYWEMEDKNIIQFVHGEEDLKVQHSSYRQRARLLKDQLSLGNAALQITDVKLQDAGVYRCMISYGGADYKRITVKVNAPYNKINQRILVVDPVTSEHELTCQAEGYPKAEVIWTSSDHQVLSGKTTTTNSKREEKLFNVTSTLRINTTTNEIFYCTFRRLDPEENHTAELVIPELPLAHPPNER

binding result	Binder
no binding (tested: 12nM)	B5

These binders were tested against T3, KDR-ECD-His蛋白 in the same assay as above.

binding result	Binder
no binding (tested: 12nM)	B2

Each binder was assayed against T4, PDL1-ECD-hFc蛋白 (assay: bridging ELISA: PDL1-ECD-hFc coated, antibody titrated, then 1 μg/ml KDR-ECD-His, HRP-anti-His (binding of both antigens at once)).

EC50	Binder
200 pM	B1
130 pM	B3
140 pM	B4
